Source: patent publication US20200062844A1

Assays:
[1] = molecular target: monkey (cynomolgus) FcεR1α expressed on cells (cynomolgus); assay: flow cytometry, 70 nM antibody on HEK293/mfFcεR1α/hFcεR1β/hFcεR1γ cells, No IgE
[2] = molecular target: human CD3 expressed in Jurkat cells (human) (UniProt P07766); assay: cell-based or functional assay
[3] = molecular target: human FcεR1α expressed on cells (human) (UniProt P12319); assay: flow cytometry, 70 nM antibody on HEK293/hFcεR1α/hFcεR1β/hFcεR1γ cells, No IgE
[4] = molecular target: monkey (cynomolgus) FcεR1α expressed on cells (cynomolgus); assay: flow cytometry, 70 nM antibody on HEK293/mfFcεR1α/hFcεR1β/hFcεR1γ cells pre-incubated with 70 nM human IgE
[5] = molecular target: human FcεR1α expressed on cells (human) (UniProt P12319); assay: flow cytometry, 70 nM antibody on HEK293/hFcεR1α/hFcεR1β/hFcεR1γ cells pre-incubated with 70 nM human IgE
[6] = molecular target: human CD3 expressed in Jurkat cells (human) (UniProt P07766); assay: flow cytometry, 70 nM antibody on Jurkat/NFAT-luc cells, No IgE
[7] = molecular target: mfFcεR1α.MMH (cynomolgus (Macaca fascicularis)); assay: SPR (Biacore 8k), antibody captured on anti-human Fc, mfFcεR1α.MMH injected, 25°C
hFcεR1α.MMH (human) [8] = assay: SPR (Biacore 8k), antibody captured on anti-human Fc, hFcεR1α.MMH injected, 37°C
[9] = molecular target: mfFcεR1α.MMH (cynomolgus (Macaca fascicularis)); assay: SPR (Biacore 8k), antibody captured on anti-human Fc, mfFcεR1α.MMH injected, 37°C
hFcεR1α.MMH (human) [10] = assay: SPR (Biacore 8k), antibody captured on anti-human Fc, hFcεR1α.MMH injected, 25°C

Sequence of human CD3 expressed in Jurkat cells (human) (P07766 23-207 limits assumed, chain 1 of 4): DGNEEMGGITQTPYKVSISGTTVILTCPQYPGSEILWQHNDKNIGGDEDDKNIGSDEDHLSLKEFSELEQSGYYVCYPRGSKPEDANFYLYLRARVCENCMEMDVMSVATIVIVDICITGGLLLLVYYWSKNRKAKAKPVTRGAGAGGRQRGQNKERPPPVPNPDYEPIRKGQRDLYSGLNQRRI
Sequence of human CD3 expressed in Jurkat cells (human) (chain, as listed by the source limits assumed, chain 2 of 4): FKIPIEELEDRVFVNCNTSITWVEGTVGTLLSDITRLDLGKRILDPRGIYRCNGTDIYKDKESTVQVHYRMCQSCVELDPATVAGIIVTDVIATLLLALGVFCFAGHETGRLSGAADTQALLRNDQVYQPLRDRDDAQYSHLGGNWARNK
Sequence of human CD3 expressed in Jurkat cells (human) (chain, as listed by the source limits assumed, chain 3 of 4): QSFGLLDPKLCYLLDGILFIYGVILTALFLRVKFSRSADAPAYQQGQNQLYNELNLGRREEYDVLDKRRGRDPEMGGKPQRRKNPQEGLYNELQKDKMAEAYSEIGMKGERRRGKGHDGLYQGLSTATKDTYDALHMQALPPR
Sequence of human CD3 expressed in Jurkat cells (human) (chain, as listed by the source limits assumed, chain 4 of 4): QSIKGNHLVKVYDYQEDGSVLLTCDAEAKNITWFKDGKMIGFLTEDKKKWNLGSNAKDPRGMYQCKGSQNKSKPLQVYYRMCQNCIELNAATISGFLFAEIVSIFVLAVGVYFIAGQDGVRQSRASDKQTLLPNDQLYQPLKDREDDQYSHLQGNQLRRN
Sequence of human FcεR1α expressed on cells (human) (P12319 26-257): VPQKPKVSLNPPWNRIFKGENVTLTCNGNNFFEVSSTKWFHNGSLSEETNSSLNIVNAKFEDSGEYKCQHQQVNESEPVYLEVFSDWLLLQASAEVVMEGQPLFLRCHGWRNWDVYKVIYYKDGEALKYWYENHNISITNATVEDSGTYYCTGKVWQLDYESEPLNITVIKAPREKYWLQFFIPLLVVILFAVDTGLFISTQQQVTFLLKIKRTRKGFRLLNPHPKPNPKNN
Sequence of mfFcεR1α.MMH (cynomolgus (Macaca fascicularis)) (chain, as listed by the source limits assumed): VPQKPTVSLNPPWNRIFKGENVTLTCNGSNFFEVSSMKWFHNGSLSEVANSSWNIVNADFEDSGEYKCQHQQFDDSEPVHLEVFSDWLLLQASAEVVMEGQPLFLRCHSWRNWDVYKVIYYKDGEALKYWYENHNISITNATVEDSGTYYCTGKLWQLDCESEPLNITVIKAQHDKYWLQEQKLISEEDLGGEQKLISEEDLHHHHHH
Sequence of hFcεR1α.MMH (human) (chain, as listed by the source limits assumed): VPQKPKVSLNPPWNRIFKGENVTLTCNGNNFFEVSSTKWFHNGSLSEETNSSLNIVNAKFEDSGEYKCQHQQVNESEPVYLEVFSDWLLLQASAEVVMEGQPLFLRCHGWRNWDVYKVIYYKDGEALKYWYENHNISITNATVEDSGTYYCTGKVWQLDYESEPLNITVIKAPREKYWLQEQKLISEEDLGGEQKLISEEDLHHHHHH

Substance	Binding Ratio (MFI of Treated/MFI of Unstained) [1]	Fold Activation, Jurkat/NFAT-luc with HEK293/hFcεR1α/hFcεR1β/hFcεR1γ cells, 10 nM IgE [2]	Fold Activation, Jurkat/NFAT-luc with HEK293/hFcεR1α/hFcεR1β/hFcεR1γ cells, No IgE [2]	Binding Ratio (MFI of Treated/MFI of Unstained) [3]	Binding Ratio (MFI of Treated/MFI of Unstained) [4]	Binding Ratio (MFI of Treated/MFI of Unstained) [5]	Binding Ratio (MFI of Treated/MFI of Unstained) [6]	600 nM mfFceR1a.MMH Bound (RU) [7]	600 nM hFcεR1α.MMH Bound (RU) (hFcεR1α.MMH (human) [8])	600 nM mfFceR1a.MMH Bound (RU) [9]	600 nM hFcεR1α.MMH Bound (RU) (hFcεR1α.MMH (human) [10])
Human IgG4 Stealth Control (antibody)	1	1 fold	1 fold	1	1	1	2				
Isotype Control mAb (antibody)								-9 RU	-2 RU	-9 RU	-5 RU
Human IgG4 Control (antibody)	1	1 fold	1 fold	1	1	1	1				
